Laboratory results published in the nanobody polyreactivity screen of Harvey et al. (2022).

Assay: yeast display, Sf9 membrane polyspecificity reagent, FACS + sequencing; frameworks hold sequencing errors
Procedure, shortened: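 Using colony PCR, genes from sorted yeast display clones were amplified, then sequenced on MiSeq at 2 × 250 and filtered by CDR length. The clones had been stained with 10% biotinylated, detergent-solubilized Sf9 membrane reagent for 1 hour at 4 °C and sorted by FACS into low and high (top ~1%) gates on anti-HA and streptavidin fluorescence. Polyreactivity labels come from the gate of origin.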

Sequence	polyreactivity (PSR sort gate)
QLQLVESGGGLVQAGGSLRLSCAASGSIFYQYVMGWYRQAPGKEREFVAAIRYTGVGTYYADSVKGRFTLSRDNAKYTVYLQMNSLKPEDTAVYYCAARSYNRRARYDYWGQGTQVNVSS	high polyreactivity
QLQLVESGGGLVQAGGSLRLSCAASGSIIGYYAMGWYRQAHGKERELVAAITASGGSTYYADSVKGRFTISRDNAKNTVYLQMNILKPEDTAVYYCAAGTHTDYGRYYYWGQGTQVTVSS	low polyreactivity
QLQLVESGGGLVQAGGSLRLSCAASGSTFALYAMGWYRQAPGKERELVAAITSDGSTKYADSVKGRFTISRDNAKNTVYLQMNSLKPEDTAVYYCNTEYYYPGIPYDYWGQGTQVTVSS	high polyreactivity
QLQLVESGGGLVQAGGSLRLSCAASGSTFHLYAMGCYREAPWNEREFVAAIRGRGGNTYADSVKGRFTISRDNAKNTVYLPMNSLKPEDTAVYYCAAAFYYYGDSDNWGQGTQVTVSS	low polyreactivity
QLQLVESGGGLVQAGGSLRLSCAASGSTFSPYAMGWYRQAPGKERDLVAGITSSGGDTYYADSVKGRFTISRDNAKNTVYLQMNSLKPEDSAVYYCAADWWVLGQLWFDYWGQGTQVTVSS	low polyreactivity
QLQLVESGGGLVQAGGSLRLSCAASGSTFSPYAMGWYRQAPGKERELVAAISASGGGTYYADSVKWRLTISRDNAKNTVYLQMNSLKPEDTAVYYCARDYGWDISKGRYGYWGQGTQVTVSS	low polyreactivity
QLQLVESGGGLVQAGGSLRLSCAASGSTFVVYARGWYRQAPGKERELVAAITRDDGRTYYADSVKGRFTISRDNAKNTVYLQMNSLKPEDTAVYYCAAGYSFGYGYWGQGTQVTVSS	low polyreactivity
QLQLVESGGGLVQAGGSLRLSCAASGSTFWRYAMGWYRQAPGKERELVAAISWNGGSTYYADSVKGRFTISRDNAKNTVYLQMNSLKPEDTAVYYCAADYWFRYGTYEYWGQGTQGTVSS	high polyreactivity
QLQLVESGGGLVQAGGSLRLSCAASGYIFEFYAMGWYSQARGKERELVDAIRWNGGTYYADSVKGRFTISRDNAKNTVYLQMNSLKPEDTAVYDCSASRYYRYKIGYVSRAMDYWGQGTQVTVSS	high polyreactivity
QLQLVESGGGLVQAGGSLRLSCAGSGGTFRVYAMGWYRQATGKERALVAAITGRGGSTYYADSVKGRFTISRDTAKNTVYLQMNSLKAEDTAVYYCAAVSFSDGSPYNYWGLGTQVTVSS	low polyreactivity
QLQLVESGGGLVQAGGSLRLSCAYYGFIFYWNAMGWYRHAPGKESQFVATITWSGGSTYYADSVTGRFTISRDNAKNTVYLQMNSLKPEDTAVYSCAVSYLSTLGRSRSDYWGQGTQVTVSS	low polyreactivity
QLQLVESGGGLVQAGGSLRLSSAASGITLYQYAMGWYRQSPGKERELVAAISSSGGSTYYADSVKGRFTISRDNAKNTVYLQMNSLKPEETAVYYCAAADRFWYGYYQYDYWGQGTQVTVSS	high polyreactivity
QLQLVESGGGLVQAGGSLSLTFAASGIISNYNAMGWYIQAPGKERELVSAISRSGTRKYYADSVKGRYTISRDNAKNTVYLQMNSLKPEDTAVYDCAAPSWSSKGYCKGYYWGQGTQVTVSS	high polyreactivity
QLQLVESGGGLVQAGRRLRLTCAASGSIFQGNVMGWYRQAPGKERELVAAITWSGGRTYYADSVKGRFTISRDHAKNTVYLQMNSMNPDDTAVYYCNAVIGRELDYWGQGTKVTVSS	high polyreactivity
QLQLVESGGGLVQARGSLRLSCAASGYIFGSYAMGWDRQAPGKERELVAANSKSGGSTYYADSVKGRFTISRDYAKNTVYLQMNSLKPEDTAVYYCAAAGIGGGGWGQGTQVTVSS	low polyreactivity
QLQLVESGGGVVQAGGSLRLSCAATGRIDWNTMGWYRQAPGKERELVASISTGGGRTYYADSVKGRFTISRDNAKNTVYLQMISLKPEDTAVFYCNAVRTVWYRYEYGYWGQGTQVTVSS	high polyreactivity
QLQLVESGGRLVQAAVSLRLSFAASGRTFYPYAMGWYRPAPGKERELVAAITSRGASTYYADSVKGRFTISRDNAKNTVYLQMNSLKPEDTAVYYCNSGRTYRRLGDYLGQGTQVTVSS	high polyreactivity
QLQLVESGGVLVQAGGSLRLSCAASGSTFRYNAMGWYRQAPGKERELVASITWSGGDTYYADSVKGRFTISRDNAKNTVYLQMNSLKPEDTAVYYCAKKGYASRYFIYDYWGQGTQVTVSS	low polyreactivity
QLQLVESRRGLVHAGGSLRLSSDASGRIFLYYAMGWYRQAPVKERELVARITSSGSTYYADSVKGLFTISRDNAKNTVYLQMNSLKPEDTAVYYCAADWYWGGIVDSWGQGTQVTVSS	high polyreactivity
QLQLVESVGGLVQAGGSLRLSCAASGGIFNVNALGWYRQAPGKERELVAAISLSGSNTYYADSVKGRFTISRDNAKNTVYLQMNSLKPEDTAVYYCNADYVYRRYGYWGQGTQVTVSS	high polyreactivity
QLQLVETGGGLVQAGGSLRLSCAASGSIIAKNAKGWYSQAPGTDRELVAAISKSGGITYYADSVKGRFSISRDNAKNTVYLQINSLKPEDTAVYYCNALSAGYIGVASRYYYWGQGTQVTVSS	high polyreactivity
QLQLVQSGGGLVQAGGSLRLSCASSGRTFTPNARGWYSQAPGKEREMVAAISWRGGSTYYADAVMGRFTISRVNGKYTVYLEMKSLKPEDTGVYYCKKRSDKSYTRTEYDNWRQGTQVTVSS	high polyreactivity

Sequence	polyreactivity (PSR sort gate)
QVEHVDSGGGLVQAGGSLRLSCAASGRTIWDYMGWYRQAPGKEREVVATITSSGGSTYYADSVKGRFTISRDNAKNTVYLQMNSLKPEDTAVYYCNADWYLWSTFAQGYGYWGQGTQVTVSS	high polyreactivity
QVEHVESGGGLVQAGGSLRLSCAASGGTFSHNDMGWYRQAPGKERELVPSINSGGSTNYADSVKGRFTISRDNAKNTVDLQMNSLKPEDNAVYYCAADVEGWTVESDVYRVGYDYWGQCTQVTVSS	low polyreactivity
QVEHVESGGGLVQAGGSLRLSCAASGSIIVDNAMGWSRQAPGKDRELVAAISVGGGRTYYADSVKGRFTISRDNAKNTVYLQMNSLKPEDTAVYYCNRVPTRGPHGVWFGYCGQGTQVTVSS	high polyreactivity
QVELEESGGGLVQAGGSLRLSCAASGFIFRYYALGWYRPGPGTVRELVAVISSSGSTHYADSVKGRITISRDNAKNTVYLQMNSLKPEDTAVYYCAADGNVWSGPRYDYWGQGTQLTVSS	low polyreactivity
QVELQVSGGGLVRAGGSLRLSCAASGNIFDADIMGWYRQAPGKERELVASITGGGSTSYAESAKGRFTISRDNAKNAVYLQMNRLKPEDTAVYYCAAAAYYADFDYWGQGTQVTVSS	low polyreactivity
QVELVESGGGLGQAGGSLRLSCAASGLIFVLNDMGWYRLAPGKVRELVAAISYSGSSTYADSVKGRFTISRDNAKNTVYLQMNSLKPEDTAVYYCARGSKVRTRGVGYWGQGTQVTVSS	low polyreactivity
QVELVESGGGLVQAGGSLRLSCAASGFTFGYNAMGWYRQAPGKERELVAAIRLSGSSTYYADSVKGRFTISRDNAKNTVYLQMNSLNPEDTAVYYCAADGISHWLYRYDYWGQGTQVTVSS	low polyreactivity
QVELVESGGGLVQAGGSLRLSCAASGFTFQEYAMGWYRQAPGQETELVAAISTSGDYTYYADSVKGRFTISRDNAKHTVYFQMNSLKPEDTAVYYCATGVDTYSLTVEHDSWGQGTQLTVSS	low polyreactivity
QVELVESGGGLVQAGGSLRLSCAASGSTFDYNAMGWYRQAPGKERELVAAISRTANANYADSVKGRFTISRDNAKNTVYLQMNSLKPEDTSVYYCAADFRASKVHVRFCYWGQGTQVTVSS	low polyreactivity
QVELVESGGGLVQAGGSLRLSCAGSGIIFPYYVMGWYRQAPGKARELVAAINSGGRTYYADSVKGRFTISRDNAKNSVYLQMNSLNREDTAVYYCAATQSTNRMDHWGQGTQVTVSS	low polyreactivity
QVELVESGGGLVQAGGSLRLSCSASGSIFYKYAMGWYRQAPGKERELVAAIRVSGGSTYYADSVKGRFTISRDNAKNTVYLQMNSLKPEDTAVYYCAAESKFPWGYRYDYWGQGTQVTVSS	low polyreactivity
QVELVESGGGLVQPGGSLRLSCAASGRTLSRYTMGWYRQAPGKERELVAAISTSGSTYYADSVKGRFTISRDNAKNTVYLQMNSLKPEDTAVYYCAADRFGIGGIRGNDYWGQGTQVTVSS	high polyreactivity
QVELVVSGGGLVQPGGSLRLSCAASGSTFFNNGMGWYRQSPGKERELVATITKRGGNTYYADSVKGRFTISRDNAKNTVYLQMNSLKPEDTAVYYCAALRYKLPLGYWGQGTQVTVSS	high polyreactivity
QVHHVESCGGLVQAGGSLRLSCAASGRTFVYYAMGWYRQAPGKEREFVAAISRSGGRTSYAYSVKGRFTISRDNPKNTVYLPMNSLKPEDTAVYYCGAEKRTQPTSREYYWGQGTQVTVSS	high polyreactivity
QVHHVESGGGLVQAGGSLRLSCAASGRIFSYYAMGRYRPAPGKERELVAAITSRGTRTYYADSVKGRFTISRDNAKNTVYLQMNSLKPDDTAVYYCNVVSDIRLYFRFAYDYWGQGTQVTVSS	high polyreactivity
QVHHVESGGGLVQAGGSLRLSCAASGRTFRYKAMGWYRQAPGKETELVARISRTGGRTYYADSVKGRFTISRDNAKTTVYLQMNSLKPEDTAVYYCNARKRYYSTRYNYWGQGTQVTVSS	high polyreactivity
QVHHVESGGGLVQAGGSLRLSCAASGSIFWTYAMGWYRQAPGKERELVAAITSGSSTKYADSVKGRFTISRDNAKNTVYLQMYSLKPEDTAVYYCNARSYRGYRGVFLYSGLLGSDYWGQGTQVTVSS	low polyreactivity
QVHHVESGGGLVQARGSLRLSCAASGFIFSSYTMGWYRQAPGKERELLAAITSRGGSTYYADSVKGRVTISRDTAKNTVYLQMNSLKAEDTAVYYCNARRIPYSPYGVHEGNYWGQGTQVTVSS	high polyreactivity
QVHIVESGAGLVQAGGSLRLSCAASGSIFRYNAMGWYRQAPGKEREFVAAITYSGGSTYYADSVTGRFTISRDNAKNTLFLQMNSLKPEDTAVYYCAAGYCSRGSRDGYWGQGTQVSVSS	low polyreactivity
QVHIVESGGGLVQAGGSLRLSCAASGSNFTLYTMGWYRQAPGKERELVAAISTSGGRTYYADSVKGRFTISRDNAKNTVYLQMNSLKPEDTAVYYCNAGYWYYGQDDYWGQGTQVTVSS	high polyreactivity
QVHIVETGGGLFQAGGSLRLSSASSGRIFPVYAMGWYRQAPGKERELVAAISRRGGSSYYEDSVKGRFTISRDNAKNTVYLHMNCLKTEDTEVNYFAATAYYYWWWYGGDMDYWGQGTQVSVSS	high polyreactivity
